Laboratory results taken from US20240207313A1.

Experiments:
[1] = molecular target: T-cell receptor with TCR Vbeta 7.1 chain (H. sapiens rearranged TCR Vbeta 7.1) (H. sapiens); assay: cell-based or functional assay
[2] = molecular target: T-cell surface glycoprotein CD4 [Homo sapiens] (Homo sapiens) (UniProt P01730); assay: cell-based or functional assay

T-cell receptor with TCR Vbeta 7.1 chain (H. sapiens rearranged TCR Vbeta 7.1) (H. sapiens), sequence (A0A577 whole entry, form in doubt): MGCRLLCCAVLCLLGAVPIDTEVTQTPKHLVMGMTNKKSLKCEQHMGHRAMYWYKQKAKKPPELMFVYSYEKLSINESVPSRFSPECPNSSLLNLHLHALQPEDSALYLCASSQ

CART20 anti-CD20 chimeric antigen receptor (scFv of monoclonal antibody Leu16 in the third-generation CAR backbone), expressed on transduced human T cells
TCR Vβ7.1-positive cells remaining five days after CAR transduction (flow cytometry) [1]: 1.2% | CD4-positive cells remaining in the culture after CAR transduction (flow cytometry) [2]: 45%
